experiment: soluble on expression in E. coli; label from the status in PepcDB or PDB records

Sequence	soluble on expression in E. coli
MKEFIISEARTEPTVLVGLITPQQSETQVREYLDELAFLCETAGAQPIARFTQKLDQPNSVTFVGKGKLDEIRAYVQENEIGMVVFDDELSPKQLRNIEKELQTKILDRTGLILDIFARRAQTAHAKTQVELAQYQYMLPRLTGLWTHLERQRGGVGMRGPGEKQLETDRRIVLDKIARLKEELRDIDKQKSVQRKNRGKMVRVALVGYTNVGKSTLMNVLSKSEVFAENKLFATLDTTVRKVIIDNLPFLLSDTVGFIRKLPTQLVESFKSTLDEVREADLLVHVVDMSHPAFEEQIEVVNQTLAEITAGEEKPMLLLFNKIDAFSFTPKDEDDLTPRTKENISAEELQQTWMAKLGNDCLFVSAKKGTGMDALKALLYERAKAIHITRFPYNDFLFQDYSEEME	not soluble
MKEFYLTVEQIGDSIFERYIDSNGRERTREVEYKPSLFAHCPESQATKYFDIYGKPCTRKLFANMRDASQWIKRMEDIGLEALGMDDFKLAYLSDTYNYEIKYDHTKIRVANFDIEVTSPDGFPEPSQAKHPIDAITHYDSIDDRFYVFDLLNSPYGNVEEWSIEIAAKLQEQGGDEVPSEIIDKIIYMPFDNEKELLMEYLNFWQQKTPVILTGWNVESFDIPYVYNRIKNIFGESTAKRLSPHRKTRVKVIENMYGSREIITLFGISVLDYIDLYKKFSFTNQPSYSLDYISEFELNVGKLKYDGPISKLRESNHQRYISYNIIDVYRVLQIDAKRQFINLSLDMGYYAKIQIQSVFSPIKTWDAIIFNSLKEQNKVIPQGRSHPVQPYPGAFVKEPIPNRYKYVMSFDLTSLYPSIIRQVNISPETIAGTFKVAPLHDYINAVAERPSDVYSCSPNGMMYYKDRDGVVPTEITKVFNQRKEHKGYMLAAQRNGEIIKEALHNPNLSVDEPLDVDYRFDFSDEIKEKIKKLSAKSLNEMLFRAQRTEVAGMTAQINRKALINGLAGALGNVWFRYYDLRNATAITTFGQMALQWIERKVNEYLNEVCGTEGEAFVLYGDTDSIYVSADKIIDKVGESKFRDTNHWVDFLDKFARERMEPAIDRGFREMCEYMNNKQHLMFMDREAIAGPPLGSKGIGGFWTGKKRYALNVWDMEGTRYAEPKLKIMGLETQKSSTPKAVQKALKECIRRMLQEGEESLQEYFKEFEKEFRQLNYISIASVSSANNIAKYDVGGFPGPKCPFHIRGILTYNRAIKGNIDAPQVVEGEKVYVLPLREGNPFGDKCIAWPSGTEITDLIKDDVLHWMDYTVLLEKTFIKPLEGFTSAAKLDYEKKASLFDMFDFHHHHHH	soluble
MKEHIAAVHKQTIAQAAERLFLERGFDGTSISDICAASGYSRRTVYRYFDTKEEILYYIVANGLEQLRDRLTDIVQAEQPFLAKYEHICKAMRAYYEHCPISARAVHQFQPKALETVTPTMETIFSLGTAINDALARWIEQGIAEGVVRETADVMMTVYVFSAQLHALFDLVETKGAFLLPTLGKTKEQFFAYGQKMIFNSLAKEPLL	soluble
MKEKIPFYNEKEFNEMMKKTKKGTFSGWYIINPENNSVEFSGSFNRQFKLNKPIIPVNTEYVTRKEFNEYKDSNDQRLIKIETTLTAQGEQINKLTQTVEKQGEQIRELQVEQKAQGEQIKAQGETLKLILQTLQKMSDRLDKIDPPKLEHHHHHH	not soluble
MKEKISEKEYKALIRKTGKEHFDGEKEEYGDGTVGVWTYELRKYKLKPPVKVKYVTQEQFQEYKDSNNQRLIKIENKVDKLVEIVQIHGEQIKAQGETLQLILQTLQKMSDRLDKMEKRIDKLESKLEHHHHHH	not soluble
MKEKSIEDIVFEKFQPYINWSIDKLCEHFSINKGEKGLNYRIASAILNLKGKTTKSKPFPEVEEFEKSSIVVKTVHFNKKNVNKESMSFGAFKFEELANEEWEDSEGYPSAQWRNFLLETRFLFFVVKEDEDGVDIFKGIKFFSMPEEDINGPVKRMWDDTVKKLKEGVTLEAVPDKSTKDGWRIKNNFVDKSDDLICHVRPHTNNRDYRGGSNADKLPKKINWINRPDSDDYSDEWMTKQSFWINNDYIKKQVEDLL	soluble
MKEKSSVEVRLDKWLWAARFYKTRAMAREMIEGGKVHYNGQRSKPSKIVELNATLTLRQGNDERTVIVKAITEQRRPASEAVALYEETAESVEKREKMAQARKLNALTMPHPDRRPDKKERRDLLRFKHGDSE	not soluble
MKEKVFFKTFGCRTNIYDTELLKSYVKDYEIINDENKAQIIVVNSCTVTNGADSGIKSYVNTMQKKGIKVILTGCGAVSKGKELLDKKQVFGVLGASNKDKINEFLGAKTSFYELGNLNFIDKDIVCEYENHTKAFVKIQEGCDFACSYCIIPSVRGKSRSVDEKALLKQVEILGANGYSEIVLTGTNIGSYGLKNGTTLGKLLQKMGQILGIKRIRLGSLEPAQLDESFLEILDEAWLERHLHIALQHTSEKMLRIMRRRSHTDNDLKLFNTIASKGYALGTDFIVAHPGESEELWQEALRNFKEFPLTHIHAFIFSPRNNTHSATMKDVINGTLAKERLNTLKSIVEKNNYEFRKKNQVSLEVLVENQKDGFFEGYDQFFNKIKIKSDKDIAKEWIVISEYEVQEKSNFTNLKGLEHHHHHH	soluble
MKELMRNVYLLDDTLVTKSKYGSHYGEKVFDGYREWVPWRSKLAAMILKGHRLKLRGDERVLYLGAASGTTVSHLADIVDEGIIYAVEYSAKPFEKLLELVRERNNIIPLLFDASKPWKYSGIVEKVDLIYQDIAQKNQIEILKANAEFFLKEKGEVVIMVKARSIDSTAEPEEVFKSVLKEMEGDFKIVKHGSLMPYHRDHIFIHAYRF	soluble
MKEMTGLHSLVSIENFIKQHKFSFIYISRPGCTVCHAVLPQLRIVLDQFPNIKLGHINADDVAEVAGRFSVFTVPVLLLFIDGTEFLREARFVHFEQLEQKLKRVYRLYEGE	not soluble
MKEMVGGCCVCADENGWTDNPLIYCDGENCEVAVHQGCYGIQEVPEGEWFCAKCTKASAMMPGSINEATFCCQLCPFDYGALKKTDRNGWAHVICALYIPEVRFGNVHSMEPVILNDVPTDKFNKLCYICNEERPNDAKKGACMSCNKSTCKRSFHVTCAQRKGLLCEEGAISRNVKYCGYCENHLKKAINDPAIKVIPACPPVQRLSKEQDKKKTVLLTSLPLPPPAPRLHMLADPLPIKSNKVNNVLGLGSAINAVSLEERPASGSTVNSGIFVPPPTAFSPPLTTSSRSSVAQDPSPPLTINKNSLSSSGPLIPSTAHLSATTASATPIMANGSTLPPSSETTVGTHCLQQLQIQSAAAAAITQNQIGPSELNGYPAASQLSSFMHEIPARNTTSVASLLPPGAAEYHLNGSGDEEKTVKAVLTAPLTKAKRIRDSKNDMMDKTHKRPRANARPPAVLGSMSSGSSGGTVGKSPSMQRLQNLVAPIVSETVTDFQRDRVADRTAAERRAAAAQSQPSTSTNGGPNVTIPAVVEVHTNSTNSTNHQNNGLTQNAPASTSMQAGTSSNDGVISQNGTSSTSQSNRLNLPSFMEQLLERQWDQGSSLLMANAHFDVAQLLSCLFQLKSENFRLEENLSGLRKRRDHLFALNSRLAEVNTLDVSKRQRSDGLLLQQQIAHHLDPTSIVPKAEVHKQEPLSAPTSVPLPANHSSSLFEDIKAPKATYSRKTPSNIPLTVPLSTAATALTTTTAASSGAPVNSNIQNHRATPSTAGAPMAATPIMTAVTSANELAALSPERAQALLNMYRMPLDANVAAQLSMITNFPGQVNPSLFSRLLAVNMMNGGLQPNGQPLSALPPPTSATPNGK	soluble
MKENFLKQKRMEKNLTLEQVGNFVGVGKSTVRKWETGMIENMGRDKIVALSKILDVSPLEILGIPETEETPFVVPTNIMNIYKQLTTENQEAVFRYAQKKLTEQNYF	not soluble
MKFFNREKEINEILLILEEEPNNIYFIYGPLNSGKSTLIREVITNRLDKSKYIPFFIDFRTRNILNVDNFIECLFEVDEKSKIDDFREYAKSLADLLVKGSEEISKYYLGMPIKVPKPFFDRIFSKRDKSADVYQYIEYLFAKLNEKGKKPILIFDELQMIREITLNGNRLLLWSLFQFLVALTKVQHLCHVFCLSSDSLFIEYIYGKAELKGGVDYILVDDFDKKTALKFMDFLAKQKNINLTNEDKELIYSYVGGKAKYIYDVIVKLKAVKDLKYILETKLEEERNHLEELLEKVEEDYEGINYDEVLEALKLFKDNYELPKSKIKRKIRIFLIKENILFLNPQKGTLKPQSYLVWNAIKRML	not soluble
MKFIVKLQAEITIKSRPVRKRFTKILESSVKNVLRRIDEQVTTRMNWDNIEVNTKDNSPENRERLVEALKCIPGIPMFLEVQQSEFVDVHDIYEKTLAVHAESIENKTFCVRAKRTGNHDFNSLKVEQYVGGGLNQQVESAKVKLKNPDVTIHLEIKNKDLFIVTQRHKGLGGFPIATQEDVLSLMSGGFDSGVSSYQMIKKGARTHYCFFNLGGSAHEVGVKQISYYLWNKFGASHKVKFFAVDFEPVVAEILENVENSQMGVVLKRMMIRAATKIAERGKIQALVTGESLGQVSSQTLTNLNVINRVTDTLILRPLAAYDKQDIIDIARKIGTEEFSKTIPEYCGVISKKPTVKAVLSKVEEEEGNFDFDVLDKVVSETRVYDIRDIGKEAEEEIHAVDLVENIPENAVVVDIRSPEEEEDKPLELGDVEVKHIPFYKLSTQFGDLDMTKEYLLYCDHGVMSKLQALYLLDNGFKNVKVYRP	not soluble
MKFLNVLIVVEDIEKSKKFYYDVLGLKVICDFGENVVLEGNISLQEKKLWLEFINKSDSEVKFNGNDAELYFEEDNFDTFVERLSTMKDIDYVHLAIEHRWGQRAIRFYDLDGHIIEVGETMSSVCRRFLDSGLSIDEVAKRMDVTVEYIESVLELEHHHHHH	soluble
MKFLRIEDEVIYSKKRYKLKREIDKLFLDEEYFQIEPQLFEEYDEFTTINNKIPEESMVKVVNGKVMVLRADITTSIIKSLVPRWEDGLKLKLFYNSSIYKNKNTVGIKEIRQIGCEYLGEASVEADREVVKLALKILEKYNNNFILEVGSSKYIHGLLEELNLNKNCENQIKNLLYTKNTHELKVYIEELKIKHEVKELLSNILSLQGNLYNVIEKSNKFYCNNKMKQALEELKQVNNLIEECNFLDKARFDLSMITMLDYYEGIMFRGYYPNSYKEILSGGRYDSLTKEYGKEIPAIGFTLSVDELMKYVYK	soluble
MKFSESVPLYKQPLSIPAEQLPQPDLNRNLPLSKYFLMMKTPEIGFQKAEVRDVLLRKVVLNEIEKIPAIWNCKNTYNANKLYPEVAVQVYRRTGTLLHTKMVQMVFKTAKDSLRNRLRDAISRKGLNEVDTEAHLLEWEYYPFVRFYREVSEGWEDRMRKTKQLEKREPAGGVGIVGDDENSMDVEEEPYENPDIIWDDVADPESPTTSMSSTLTSTQGTFTDYHPEEPYHNPEPPLIHPTLEYAAMKTASLQRNQQNKHVMEVRHGSETRTVVVMPTEPPRQQLNAPDFAEEMLQVTYQATRIAREQPERVKLLRKALFDTVLAFDQKEYNCVADLYRDLAEKSSR	not soluble
MKFSVLMSLYIKENPQFLRECFESLVAQTRQADEIVLVFDGVVTPDLEFVVTEFETKLPLKLVKLPQNRGLGKALNEGLLHCDYDWVFRMDTDDICVPDRFEKQVAFIEQHPESIIFGGQIAEFGKNVNDIVAYRNVPTSAQEIIKFTQKRCPFNHMTVAYQKSAVINCGGYEDLQEDYYLWIKLVAQGLYMANLPDILVYARVGNGMVLEHHHHHH	not soluble
MKFTELTVKEFENFVQNPSLESHYFQVKENIATRESDGFQVVLLGVKDDDNRVIAASLFSKIPTMGSYVYYSNRGPVMDYSDLGLVDFYLKELDKYLHQHQCLYVKLDPYWLYQVYDKDINPLTEKNDALVNLFKSHGYDHHGFTTQYDSSSQVRWMGVLDLEGKTPASLRKEFDSQRKRNINKAINYGVKVRFLSKDEFGLFLDLYRETEARTGFASKTDDYFYNFIEHYGDKVLVPLAYIDLNEYIQHLQESLNDKENRRDDMMAKENKTDKQLKKIAELDKQIDHDKKELLQASELRQTDGEILNLASGVYFANAYEVNYFSGGSSEKYNQYMGPYAMHWHMINYCFDNGYDRYNFYGLSGDFTENSEDYGVYRFKRGFNVRIEELIGDFYKPINKVKYWLFNTLDRIRNKLKK	not soluble
